This is an account of results in PMC6148051, “p53 cooperates with SIRT6 to regulate cardiolipin de novo biosynthesis” (Cell Death & Disease, 2018).

This test concerns the target T1, His-tagged p53 protein (UniProt P04637 1-393).
T1 construct: tumor suppressor p53, cloned into pET28b+; also called His-p53; source: bacteria (pET28b+), purified (Ni(II)-Sepharose)
The experiment in a line: pull-down; GST or GST fusion proteins on glutathione-Sepharose 4B beads incubated with purified His-tagged proteins in TEN buffer (10 mM Tris-HCl, pH 8.0, 1 mM EDTA, 100 mM NaCl), 4 h, 4 °C; blot with anti-His or anti-GST, Coomassie staining. As to conditions: both partners purified.

T1 sequence (P04637 whole entry): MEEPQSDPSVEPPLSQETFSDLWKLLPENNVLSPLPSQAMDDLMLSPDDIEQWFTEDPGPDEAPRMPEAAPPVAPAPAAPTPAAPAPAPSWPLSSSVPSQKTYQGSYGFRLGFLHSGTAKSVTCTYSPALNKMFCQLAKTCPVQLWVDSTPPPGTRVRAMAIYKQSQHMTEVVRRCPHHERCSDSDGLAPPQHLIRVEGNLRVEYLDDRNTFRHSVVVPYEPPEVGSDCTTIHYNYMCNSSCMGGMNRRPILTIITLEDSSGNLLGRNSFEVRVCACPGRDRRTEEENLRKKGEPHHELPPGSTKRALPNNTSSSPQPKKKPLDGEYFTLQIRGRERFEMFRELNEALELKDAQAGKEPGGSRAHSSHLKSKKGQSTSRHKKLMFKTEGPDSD

B1: GST-SIRT6 core domain, 35–276 aa (domain or fragment, UniProt Q8N6T7 35-276, looked up)
chain: WELARLVWQSSSVVFHTGAGISTASGIPDFRGPHGVWTMEERGLAPKFDTTFESARPTQTHMALVQLERVGLLRFLVSQNVDGLHVRSGFPRDKLAELHGNMFVEECAKCKTQYVRDTVVGTMGLKATGRLCTVAKARGLRACRGELRDTILDWEDSLPDRDLALADEASRNADLSITLGTSLQIRPSGNLPLATKRRGGRLVIVNLQPTKHDRHADLRIHGYVDEVMTRLMKHLGLEIPAW
notes: source: bacteria, purified (glutathione-Sepharose 4B)
Take B1: the binding result was “binds”.
